According to article PMC2132825 (The Journal of Cell Biology, 1998):

Biological target: T1, purified recombinant mouse PKCζ (mouse, UniProt Q02956 1-592)
T1 sequence (looked up): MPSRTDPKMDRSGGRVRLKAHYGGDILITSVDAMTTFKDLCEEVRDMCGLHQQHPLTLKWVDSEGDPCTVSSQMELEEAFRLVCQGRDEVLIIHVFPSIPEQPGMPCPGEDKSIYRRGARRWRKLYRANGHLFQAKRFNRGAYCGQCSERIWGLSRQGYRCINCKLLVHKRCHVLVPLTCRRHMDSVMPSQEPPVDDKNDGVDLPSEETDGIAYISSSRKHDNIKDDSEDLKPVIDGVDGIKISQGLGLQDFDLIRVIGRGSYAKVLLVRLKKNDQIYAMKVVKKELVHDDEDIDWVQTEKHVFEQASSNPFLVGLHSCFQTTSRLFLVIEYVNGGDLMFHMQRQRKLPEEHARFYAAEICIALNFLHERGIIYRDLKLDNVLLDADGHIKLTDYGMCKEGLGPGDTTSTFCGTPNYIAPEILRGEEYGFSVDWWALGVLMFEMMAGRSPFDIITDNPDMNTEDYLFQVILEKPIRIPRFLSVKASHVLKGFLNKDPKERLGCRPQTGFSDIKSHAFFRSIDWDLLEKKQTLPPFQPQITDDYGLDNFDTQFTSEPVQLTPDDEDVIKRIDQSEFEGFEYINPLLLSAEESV
Experiment: far-Western, overlay or dot blot

binding result: binds
B1: GST-ASIP 712/936 (domain or fragment, rat, UniProt Q9Z340 712-936, looked up)
chain: RRISHSLYSGIEGLDESPTRNAALSRIMGESGKCQLSPTVNMPHDDTVMIEDDRLPVLPPHLSDQSSSSSHDDVGFIMTEAGTWAKATISDSADCSLSPDVDPVLAFQREGFGRQSMSEKRTKQFSNASQLDFVKTRKSKSMDLGIADETKLNTVDDQRAGSPNRDVGPSLGLKKSSSLESLQTAVAEVTLNGNIPFHRPRPRIIRGRGCNESFRAAIDKSYDKP
